Test results reported in US20250138018A1 (NEXTPOINT THERAPEUTICS, published 2025).

T1: CD20 on CD20+ Raji cells (UniProt P11836 1-297, limits assumed)
T1 construct: whole, on cells; Endogenous CD20 of the Raji cell line; also called TAA (CD20)
T1 sequence (looked up): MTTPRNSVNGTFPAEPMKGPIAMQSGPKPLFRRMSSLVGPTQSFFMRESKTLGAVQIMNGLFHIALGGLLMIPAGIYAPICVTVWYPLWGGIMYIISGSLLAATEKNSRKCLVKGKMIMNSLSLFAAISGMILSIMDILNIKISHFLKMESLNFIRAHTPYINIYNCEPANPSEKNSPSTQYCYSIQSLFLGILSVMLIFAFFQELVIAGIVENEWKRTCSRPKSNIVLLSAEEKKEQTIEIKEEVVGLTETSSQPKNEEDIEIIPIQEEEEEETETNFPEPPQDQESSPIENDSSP


What follows are binders tested against T1, CD20 on CD20+ Raji cells (assay: Raji co-culture with TMIGD2-Jurkat NFAT reporter cells; binding told in words, not measured directly).
Description: Raji cells (2×10⁴) were plated in a 96-well white flat bottom tissue culture plate with anti-TMIGD2/anti-CD20 bispecific antibodies (TK20-17C7-01, TK20-29F8-16, and TK20-39C9-2134) in 50 μl R10 medium (RPMI 1640+10% Fetal bovine serum) at 3-fold serial dilutions ranging from 10-0.5 μg/mL. An anti-CD20 (IgG1 LALA) was included as a negative control. The cells were incubated at 37° C. for 30 minutes. TMIGD2-Jurkat NFAT reporter cells (4×10⁴) were added to each well with 1 μg/mL anti-CD3 antibody (OKT3) in 50 μl R10 medium. Cells were incubated at 37° C. for 6 hours and 100 ul of Bio-Glo™ luciferase assay reagent (Promega®, G7940) was added to each well. Luciferase activity was measured on a plate reader.

binding result | Binder
binds | TK20-17C7-01 anti-TMIGD2/anti-CD20 bispecific antibody (bispecific antibody, human IgG1, kappa, L234A L235A, Tetravalent Morrison format; copies: 2 + 2) heavy: not shown light: QIVLSQSPAILSASPGEKVTMTCRASSSVSYIHWFQQKPGSSPKPWIYATSNLASGVPVRFSGSGSGTSYSLTISRVEAEDAATYYCQQWTSNPPTFGGGTKLEIKRTVAAPSVFIFPPSDEQLKSGTASVVCLLNNFYPREAKVQWKVDNALQSGNSQESVTEQDSKDSTYSLSSTLTLSKADYEKHKVYACEVTHQGLSSPVTKSFNRGEC
binds | TK20-39C9-2134 anti-TMIGD2/anti-CD20 bispecific antibody (bispecific antibody, human IgG1, kappa, L234A L235A, Tetravalent Morrison format; copies: 2 + 2) heavy: not shown light: QIVLSQSPAILSASPGEKVTMTCRASSSVSYIHWFQQKPGSSPKPWIYATSNLASGVPVRFSGSGSGTSYSLTISRVEAEDAATYYCQQWTSNPPTFGGGTKLEIKRTVAAPSVFIFPPSDEQLKSGTASVVCLLNNFYPREAKVQWKVDNALQSGNSQESVTEQDSKDSTYSLSSTLTLSKADYEKHKVYACEVTHQGLSSPVTKSFNRGEC
binds | TK20-29F8-16 anti-TMIGD2/anti-CD20 bispecific antibody (bispecific antibody, human IgG1, kappa, L234A L235A, Tetravalent Morrison format; copies: 2 + 2) heavy: not shown light: QIVLSQSPAILSASPGEKVTMTCRASSSVSYIHWFQQKPGSSPKPWIYATSNLASGVPVRFSGSGSGTSYSLTISRVEAEDAATYYCQQWTSNPPTFGGGTKLEIKRTVAAPSVFIFPPSDEQLKSGTASVVCLLNNFYPREAKVQWKVDNALQSGNSQESVTEQDSKDSTYSLSSTLTLSKADYEKHKVYACEVTHQGLSSPVTKSFNRGEC
